The emibetuzumab library of Makowski et al. (2022)

B1: VH:VL chains; a variant is named by its letters at X, in order (parent)
chain 1: QVQLVQSGAEVKKPGASVKVSCKASGYTFTDYXMHWVRQAPGQGLEWMGXVNPNXXXTTYNQKFEGRVTMTTDTSTSTAYMELRSLRSDDTAVYYCARXNXLDXWGQGTTVTVSS
chain 2: DIQMTQSPSSLSASVGDRVTITCSVSSSVSSIYLHWYQQKPGKAPKLLIYSTSNLASGVPSRFSGSGSGTDFTLTISSLQPEDFATYYCQVYSGYPLTFGGGTKVEIK

Variants of: B1
Assay: yeast display scFab, FACS + sequencing
Outline: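 The non-specific binding call was based on sorted and sequenced yeast displaying a heavy-chain CDR mutant scFab library. Labelling used anti-Myc with biotinylated ovalbumin (260 μg/mL in PBSB, 3 h, room temperature) or soluble membrane proteins (130 μg/mL, 20 min on ice), and FACS collected the top 25% and bottom 10% of binders in two replicates. Positive meant present in ≥3 of 4 pooled positive samples and in no negatives, and negative meant the converse.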

| Variant | non-specific binding call |
| --- | --- |
| VGAEGVWS chain 1 G66S | binds |
| FGATSVSF | binds |
| FGEEDFSS chain 1 W105R | binds |
| VGGGADVA | no binding |
| AKAADSSD | binds |
| VGGGADGA | no binding |
| VGGGADGV | no binding |
| YGAAGSAA | binds |
| SGTADSSS | binds |
| YGETGFGS | binds |
| FGRRGAGV | binds |
| FGRGGVGD | binds |
| SGGTGDVF | no binding |
| AGGGNDVV | no binding |
| AGGGNDVY | no binding |
| VGAEDDVA | no binding |
| DGERTAGV | no binding |
| VKAGDAWS | no binding |
| YGKGTSGF | no binding |
| AGGGNDGV | no binding |
| AGGGNDGA | no binding |
| FKAGGAVA | binds |
| YGETGDSV | no binding |
| YKAGGFWF | binds |
| YGGGGASV | binds |
| AGTRSFGY | binds |

| Variant | non-specific binding call |
| --- | --- |
| YGRGNSGD | no binding |
| YKAGGAWD | binds |
| VKAGDSSS | no binding |
| DKAGGDGS | no binding |
| YGATSSLA | binds |
| DGGADVGA | binds |
| SGAGDYSD | binds |
| DGGKNDVV | no binding |
| DGGRSAVF | no binding |
| DGARNAAA | no binding |
| YGGGGDVV | no binding |
| SGTKGYWD | binds |
| VGATSFSA | binds |
| VGGTSSAD | no binding |
| SGGGNDLA chain 1 R87K | no binding |
| DGARNFGV | no binding |
| SKAENAWV | binds |
| DGGENDVF | no binding |
| DGGENDVY | no binding |
| VGKGDDAA | no binding |
| YGKGGDLA | binds |
| VGARNSGV | no binding |
| VGGGNAGD | no binding |
| SGEGGAVA | no binding |
| DGGRGDAF | no binding |
| VKAGGDVY | no binding |

| Variant | non-specific binding call |
| --- | --- |
| DGGKGAVD | binds |
| AGETGFSA | binds |
| VGGGNDLA chain 1 R87K | no binding |
| DGGEGVVY | binds |
| YKAGGFGA | binds |
| YGGRGSWV | no binding |
| DGGTSYSV | no binding |
| YGRRGFSV | binds |
| YGGGGVAA | binds |
| FKAEAFSF | binds |
| VGGTSDVF | no binding |
| VGGTSDVA | no binding |
| VGGTSDVV | no binding |
| VKAGDAVY | no binding |
| FGGENDGD | no binding |
| VGRGNVGV | binds |
| AGGGNAGD | no binding |
| DGGGASSA | no binding |
| VKAAGSVD | binds |
| SGKGGSAY | binds |
| FGRRTYGD | binds |
| VKAGGDSD | no binding |
| FGKEDSVD | binds |
| SKAGGAGA | binds |
| DGTGGAGA | no binding |
| DGGKNAGD | no binding |

| Variant | non-specific binding call |
| --- | --- |
| DGGKNAGV | no binding |
| DGGKNDGD | no binding |
| DGGKNDGV | no binding |
| DGGKNDGS | no binding |
| FGATSFSV | binds |
| AGGTSYSV | no binding |
| DGGTNSSA | no binding |
| YGGTSYSV | no binding |
| VGGTSSGA | no binding |
| VKAASAVY | no binding |
| YKAGDSSD | no binding |
| FGRGSSWA | no binding |
| YGAKGDGV | no binding |
| DGGGNVSD | no binding |
| VGEKGDGV | no binding |
| SKAGGALD | binds |
| SKAGDAWY | binds |
| SKAGDAWD | binds |
| YKAGDAAA | binds |
| AGGRSFVF | binds |
| VGRTSFGF | binds |
| VKAGASAD | binds |
| DGGGGYWF | binds |
| VGTKGDAA | no binding |
| DGTGGSGA chain 1 R67H | no binding |
| DGGKNDLA | no binding |

| Variant | non-specific binding call |
| --- | --- |
| SGEGGAAV | no binding |
| YGGGGAVA | no binding |
| YGGRGDWV | no binding |
| YGETGFWY | binds |
| VGGRGDGS | no binding |
| AGGGNDWV | no binding |
| VGTKGSSA | no binding |
| VGGTGSGA | no binding |
| VGGTGSGY | no binding |
| VKAGDAAV | no binding |
| SGKKSSGV | binds |
| YGKRDASY | binds |
| VGRGNSGD | no binding |
| DGERDYSD | binds |
| DGRGNSGD | no binding |
| VGGGGAAD | no binding |
| YKAGDAGD | no binding |
| VGGGAAGF | no binding |
| VGGGAAGV | no binding |
| VGRATVGS | binds |
| VGTKGAGF | binds |
| AGRGADLS | no binding |
| SGRGNDAV | no binding |
| SGRGNALD | no binding |
| YGRTSAAV | binds |
| VGGGGDGS | no binding |

| Variant | non-specific binding call |
| --- | --- |
| DGGGNDLA chain 1 R87K | no binding |
| AKAGGASD | binds |
| DGARNAGV | no binding |
| DGGKNDWV | no binding |
| YKAGDDGA | no binding |
| SGRGNAGD | no binding |
| VGGTSDWA | no binding |
| DGGTNDVA | no binding |
| DGGTNDVD | no binding |
| YGTATFLV | binds |
| VGEGGDAY | no binding |
| VGGTSSLD | no binding |
| SGGKNSVD | no binding |
| DGGRAFWF | binds |
| VGGGASGV | no binding |
| AGKGGFAY | binds |
| YGGRGDAD | no binding |
| VGGTDFVA | no binding |
| FGRGTSGD | binds |
| VGGTSDGA | no binding |
| VGGTSDGD | no binding |
| VGGTSDGV | no binding |
| YGGRGYAV | binds |
| FGTKGAWD | binds |
| VKAGDDVA | no binding |
| SGEGNSWA | no binding |

| Variant | non-specific binding call |
| --- | --- |
| VGGTGDVF | no binding |
| YGAGDFGA | binds |
| VGGKNSVD | no binding |
| SGRGNSGV | no binding |
| SGRGNSVD | no binding |
| DGGRGDVV | no binding |
| YGGRADVY | no binding |
| YGTRSAAD | no binding |
| DGGKNSVD | no binding |
| AGGRGDVD | no binding |
| YGARGAAF | binds |
| SKAGGDVD | no binding |
| DGTKSYGV | binds |
| VGGRADGF | binds |
| DGGTNAGD | no binding |
| VGGTSSSS | no binding |
| VGGTSSSV | no binding |
| VGGTSSSA | no binding |
| YGARNAAV | binds |
| AGGENDGD | no binding |
| VGGTSALD | no binding |
| YGGRAAGA | binds |
| SGREGDWD | binds |
| AGERNVAS | binds |
| SGRGNDGV | no binding |
| DGEGGDWD | binds |

| Variant | non-specific binding call |
| --- | --- |
| SGEEGSGA | binds |
| YKAGDVSV | binds |
| DGRGDALS | no binding |
| FGKGGFGY | binds |
| DKAGGAGV | no binding |
| YGGKNSVD | no binding |
| YKAGGALD | binds |
| YKAGGALY | binds |
| YKAGGALA | binds |
| VGATSVSF | binds |
| FGAATDGV | binds |
| AGTKADVV chain 1 G108S | no binding |
| YGGRGAVA | no binding |
| DGGTGDVF | no binding |
| SGKKAVWV | binds |
| DGGTNDGA | no binding |
| DGGKNAVA | no binding |
| DGGKNAVV | no binding |
| YGTAAFGF | binds |
| DGARGALF | binds |
| AETTDSWV | no binding |
| FGGEGDGA | binds |
| FGAKTASF | no binding |
| SGEGGAGA | no binding |
| DGGRGDGA | no binding |
| DGGENAGD | no binding |

| Variant | non-specific binding call |
| --- | --- |
| YKAGDSVA | no binding |
| DGGKNDAV | no binding |
| AGEGNSWA | no binding |
| YGTRSYGV | binds |
| VKAGGDAV | no binding |
| SGRGNAAD | no binding |
| SGGRDSGV | binds |
| SGETGDSV | no binding |
| VGETSYVD | binds |
| YKAEDVGD | binds |
| VKAGDSGA | no binding |
| SGGRTYGV | binds |
| SGREGDSA | no binding |
| VKAGGDGS | no binding |
| DGKEGYWA | binds |
| AGGGNSGV | no binding |
| VKAGGAGS chain 1 G44D | binds |
| DGAKGDGV | no binding |
| DGGGNDLV | no binding |
| FGAKGSSS | binds |
| DGARNSGV | no binding |
| FGAAAVGD | binds |
